Test results reported in patent US11135246B2, “Peptides and combination of peptides for use in immunotherapy against leukemias and other cancers” (Immatics Biotechnologies GmbH, priority 2017, dated 2021).

target: HLA-B*44:02 (Homo sapiens, UniProt P01889, A223V/A65T/A93T/A95T/D201E/D98Y/E176V/E187L/E204Q/E69K/G107R/H137Y/K202T/L105A/L119I/N104T/N87E/Q56L/Q94N/R106L/R155S/R180D/S101N/S121R/S35A/S48T/T118I/V36M/W191S/Y140D/Y91S); test: MHC binding assay, UV-ligand exchange with β2m ELISA, HLA-B*44:02; conditions: binding to HLA-B*44:02, UV-ligand exchange
Excerpt: (§1) Candidate peptides for T cell based therapies according to the present invention were further tested for their MHC binding capacity (affinity). The individual peptide-MHC complexes were produced by UV-ligand exchange, where a UV-sensitive peptide is cleaved upon UV-irradiation, and exchanged with the peptide of interest as analyzed. Only peptide candidates that can effectively bind and stabilize the peptide-receptive MHC molecules prevent dissociation of the MHC complexes. To determine the yield of the exchange reaction, an ELISA was performed based on the detection of the light chain (β2m) of stabilized MHC complexes. The assay was performed as generally described in Rodenko et al. (Rodenko et al., 2006).
(§2) 96 well MAXISorp plates (NUNC) were coated over night with 2 ug/ml streptavidin in PBS at room temperature, washed 4× and blocked for 1 h at 37° C. in 2% BSA containing blocking buffer. Refolded HLA-A*02:01/MLA-001 monomers served as standards, covering the range of 15-500 ng/ml. Peptide-MHC monomers of the UV-exchange reaction were diluted 100-fold in blocking buffer. Samples were incubated for 1 h at 37° C., washed four times, incubated with 2 ug/ml HRP conjugated anti-β2m for 1 h at 37° C., washed again and detected with TMB solution that is stopped with […]. Absorption was measured at 450 nm. Candidate peptides that show a high exchange yield (preferably higher than 50%, most preferred higher than 75%) are generally preferred for a generation and production of antibodies or fragments thereof, and/or T cell receptors or fragments thereof, as they show sufficient avidity to the MHC molecules and prevent dissociation of the MHC complexes.

Substance | Peptide exchange (MHC class I binding score, peptide exchange yield)
172 (VEDGLFHEF; listed as Homo sapiens) [compound 172] | “+++” (>50 = +++)
173 (KEYDFGTQL; listed as Homo sapiens) [compound 173] | “++” (>20% = ++)
174 (TDKSFPNAY; listed as Homo sapiens) [compound 174] | “+” (>10% = +)
175 (HEIDGKALFL; listed as Homo sapiens) [compound 175] | “++” (>20% = ++)
176 (AENAVSNLSF; listed as Homo sapiens) [compound 176] | “++” (>20% = ++)
177 (QENMQIQSF; listed as Homo sapiens) [compound 177] | “+++” (>50 = +++)
178 (REYEHYWTEL; listed as Homo sapiens) [compound 178] | “+++” (>50 = +++)
179 (AEIKQTEEKY; listed as Homo sapiens) [compound 179] | “++” (>20% = ++)
180 (EEPAFNVSY; listed as Homo sapiens) [compound 180] | “++” (>20% = ++)
181 (GEIKEPLEI; listed as Homo sapiens) [compound 181] | “++” (>20% = ++)
182 (AQNLSIIQY; listed as Homo sapiens) [compound 182] | “++” (>20% = ++)
183 (GESQDSTTAL; listed as Homo sapiens) [compound 183] | “++” (>20% = ++)
184 (RMPPFTQAF; listed as Homo sapiens) [compound 184] | “++” (>20% = ++)
185 (SEGDNVESW; listed as Homo sapiens) [compound 185] | “+++” (>50 = +++)
186 (NEQKIVRF; listed as Homo sapiens) [compound 186] | “+” (>10% = +)

Second part, the substance after the results:

Peptide exchange (MHC class I binding score, peptide exchange yield) | Substance
“+” (>10% = +) | 187 (SDAQRPSSF; listed as Homo sapiens) [compound 187]
“+++” (>50 = +++) | 257 (KEFFFVKVF; listed as Homo sapiens) [compound 257]
“+++” (>50 = +++) | 258 (EELFRDGVNW; listed as Homo sapiens) [compound 258]
“++” (>20% = ++) | 259 (EENTLVQNY; listed as Homo sapiens) [compound 259]
“+++” (>50 = +++) | 260 (AEIGEGAYGKVF; listed as Homo sapiens) [compound 260]
“+++” (>50 = +++) | 261 (NEIEHIPVW; listed as Homo sapiens) [compound 261]
“+++” (>50 = +++) | 262 (QENQAETHAW; listed as Homo sapiens) [compound 262]
“+++” (>50 = +++) | 263 (REAGFQVKAY; listed as Homo sapiens) [compound 263]
“+++” (>50 = +++) | 264 (SEDHSGSYW; listed as Homo sapiens) [compound 264]
“+++” (>50 = +++) | 265 (QEVDASIFKAW; listed as Homo sapiens) [compound 265]
“++” (>20% = ++) | 266 (VDASIFKAW; listed as Homo sapiens) [compound 266]
“+++” (>50 = +++) | 267 (KEKFPINGW; listed as Homo sapiens) [compound 267]
“++” (>20% = ++) | 268 (NEDKGTKAW; listed as Homo sapiens) [compound 268]
“+++” (>50 = +++) | 269 (KELEDLNKW; listed as Homo sapiens) [compound 269]
“++” (>20% = ++) | 270 (AESEDLAVHL; listed as Homo sapiens) [compound 270]
“++” (>20% = ++) | 271 (AESEDLAVHLY; listed as Homo sapiens) [compound 271]
“+++” (>50 = +++) | 272 (KEFELRSSW; listed as Homo sapiens) [compound 272]
“++” (>20% = ++) | 273 (AEIEIVKEEF; listed as Homo sapiens) [compound 273]
“+++” (>50 = +++) | 274 (GEAVTDHPDRLW; listed as Homo sapiens) [compound 274]
“++++” (>75% = ++++) | 275 (TENPLTKLL; listed as Homo sapiens) [compound 275]
“+++” (>50 = +++) | 276 (EEEGNLLRSW; listed as Homo sapiens) [compound 276]
“+++” (>50 = +++) | 277 (EEGNLLRSW; listed as Homo sapiens) [compound 277]

target: HLA-B*07:02 (Homo sapiens, UniProt P01889); test: MHC binding assay, UV-ligand exchange with β2m ELISA, HLA-B*07:02; conditions: binding to HLA-B*07:02, UV-ligand exchange
Excerpt: as §1, §2

Peptide exchange (MHC class I binding score, peptide exchange yield) | Substance
“+++” (>50 = +++) | 77 (RPNGNSLFTSA; listed as Homo sapiens) [compound 77]
“+++” (>50 = +++) | 78 (RPRGLALVL; listed as Homo sapiens) [compound 78]
“+++” (>50 = +++) | 79 (SPVPSHWMVA; listed as Homo sapiens) [compound 79]
“++” (>20% = ++) | 80 (KPLFKVSTF; listed as Homo sapiens) [compound 80]
“+++” (>50 = +++) | 81 (SESPWLHAPSL; listed as Homo sapiens) [compound 81]
“+++” (>50 = +++) | 82 (APFGFLGMQSL; listed as Homo sapiens) [compound 82]
“+++” (>50 = +++) | 83 (IPVSRPIL; listed as Homo sapiens) [compound 83]
“+++” (>50 = +++) | 84 (SPKLQIAAM; listed as Homo sapiens) [compound 84]
“++” (>20% = ++) | 85 (IPVSHPVL; listed as Homo sapiens) [compound 85]
“++” (>20% = ++) | 86 (IPASHPVL; listed as Homo sapiens) [compound 86]
“+++” (>50 = +++) | 87 (FPAPILRAV; listed as Homo sapiens) [compound 87]
“++” (>20% = ++) | 88 (MPDPHLYHQM; listed as Homo sapiens) [compound 88]
“++” (>20% = ++) | 89 (FPETVNNLL; listed as Homo sapiens) [compound 89]
